According to PMC7864924, “Structures of active-state orexin receptor 2 rationalize peptide and small-molecule agonist recognition and receptor activation” (Nature Communications, 2021):

These binders were tested against engineered OX2R carrying an additional amino-terminal Avi-tag, biotinylated (Homo sapiens, UniProt O43614, residues V261–A291 deleted, biotin on the Avi-tag (BirA biotin-protein ligase)).

| binding result | Binder |
| --- | --- |
| binds | 19 (VHH) VHH: QVQLVESGGGLVQAGGSLRLSCAASGFPVMENTMYWYRQAPGKEREWVAAIDSYGYYTYYADSVKGRFTISRDNAKNTVYLQMNSLKPEDTAVYYCNVKDVGDHWWFYDYWGQGTQVTVS |
| binds | 43 (VHH) VHH: QVQLVESGGGLVQAGGSLRLSCAASGFPVSYIGMEWYRQAPGKEREWVAAITGFGHWTAYADSVKGRFTISRDNAKNTVYLQMNSLKPEDTAVYYCEVQVGAKYYGQGTQVTVS |
| binds | 27 (VHH) VHH: QVQLVESGGGLVQAGGSLRLSCAASGFPVTTRSMYWYRQAPGKEREWVAAIASNGRLTAYADSVKGRFTISRDNAKNTVYLQMNSLEPEDTAVYYCEVFVGYYYHGQGTQVTVS |
| binds | 34 (VHH) VHH: QVQLVESGGGLVQAGGSLRLSCAASGFPVNNRSMYWYRQAPGKEREWVAAIASSGFTTAYADSVKGRFTISRDNAKNTVYLQMNSLKPEDTAVYYCEVVVGYWYHGQGTQVTVS |
| binds | 42 (VHH) VHH: QVQLVESGGGLVQAGGSLRLSCAASGFPVNTRSMYWYRQAPGKEREWVAAIASTGWSTAYADSVKGRFTISRDNAKNTVYLQMNSLKPEDTAVYYCEVEVGYWYYGQGTQVTVS |
| binds | 18 (VHH) VHH: QVQLVESGGGLVQAGGSLRLSCAASGFPVNTAHMYWYRQAPGKEREWVAAIASSGDMTLYADSVKGRFTISRDNAKNTVYLQMNSLKPEDTAVYYCNVKDWGWWYVAYDYWGQGTQVTVS |
| binds | 21 (VHH) VHH: QVQLVESGGGLVQAGGSLRLSCAASGFPVKWKTMAWYRQAPGKEREWVAAISSWGLYTEYADSVKGRFTISRDNAKNTVYLQMNSLKPEDTAVYYCLVQVGVTYHGHGTQVTVS |
| binds | 23 (VHH) VHH: QVQLVESGGGLVQAGGSLRLSCAASGFPVVWKQMAWYRQAPGKEREWVAAISSWGWYTEYADSVKGRFTISRDNAKNTVYLQMNSLNPEDTAVYYCFVKVGDGYTGQGTQVTVS |
| binds | 35 (VHH) VHH: QVQLVESGGGLVQAGGSLRLSCAASGFPVRWKSMAWYRQAPGKEREWVAAISSYGFWTEYADSVKGRFTISRDNAKNTVYLQMNSLKPEDTAVYYCIVHVGVSYRGQGTQVTVS |
| binds | 52 (VHH) VHH: QVQLVESGGGLVQAGGSLRLSCAASGFPVKWKSMAWYRQAPGKEREWVAAISSYGWHTEYADSVKGRFTISRDNAKNTVYLQMNSLKPEDTAVYYCTVNVGKGYEGQGTQVTVS |
| binds | 29 (VHH) VHH: QVQLVESGGGLVQAGGSLRLSCAASGFPVKWKTMAWYRQAPGKEREWVAAISSWGLYTEYADSVKGRFTISRDNAKNTVYLQMNSLKPEDSAVYYCYVGVGAGYRGQGTQVTVS |
| binds | 37 (VHH) VHH: QVQLVESGGGLVQAGGSLRLSCAASGFPVWWKSMAWYRQAPGKEREWVAAISSFGWYTEYADSVKGRFTISRDNAKNTVYLQMNSLKPEDTAVYYCAVYVGSYYWGRGTQVTVS |
| binds | 28 (VHH) VHH: QVQLVESGGGLVQAGGSLRLSCAASGFPVVWKTMWWYRQAPGKEREWVAAISSYGWYTEYADSVNGRFTISRDNAKNTVYLQMNSLKPEDTAVYYCAVLVGYTYEGQGTQVTVS |
| binds | 39 (VHH) VHH: QVQLVESGGGLVQAGGSLRLSCAASGFPVKWKSMAWYRQAPGKEREWVAAISSWGWYTEYADSVKGRFTISRDNAKNTVYLQMNSLKPEDTAVYYCYVYVGHTYHGQGTQVTVS |
| binds | 22 (VHH) VHH: QVQLVESGGGLVQAGGSLRLSCAASGFPVYKHTMYWYRQAPGKEREWVAAINSTGAETAYADSVKGRFTISRDNAKNTVYLQMNSLKPEDTAVYYCEVYVGWFYHGQGTQVTVS |
| binds | 40 (VHH) VHH: QLQLVESGGGLVQAGGSLRLSCAASGFPVRSYTMYWYSQAPGKEREWVAAINSQGNTTAYADSVKGRFTISRDNAKNTVYLQMNSLKPEDTAVYYCEVYVGYWYHGQGTQVTVS |
| binds | 32 (VHH) VHH: QVQLVESGGGLVQAGGSLRLSCAASGFPVAEKSMYWYRQAPGKEREWVAAIASNGVLTAYADSVKGRFTISRDNAKNTVYLQMNSLKPEDTAVYYCEVYVGYFYHGQGTQVTVS |

| binding result | Binder |
| --- | --- |
| binds | 26 (VHH) VHH: QVQLVESGGGLVQAGGSLRLSCAASGFPVAHFVMYWYRQAPGKEREWVAAISSTGYNTAYADSVKGRFTISRDNAKNTVYLQMNSLKPEDTAVYYCEVYVGYFYHGQGTQVTVS |
| binds | 41 (VHH) VHH: QVQLVESGGGLVQAGGSLRLSCAASGFPVNSYVMYWYRQAPGKEREWVAAIGSTGEYTAYADSVKGRFTISRDNAKNTVYLQMNSLKPEDTAVYYCEVFVGYFYYGQGTQVTVS |
| binds | 50 (VHH) VHH: QVQLVESGGGLVQAGGSLRLSCAASGFPVWHDTMYWYRQAPGKEREWVAAIGSTGNLTAYADSVKGRFTISRDNAKNTVYLQMNSLKPEDTAVYYCEVYVGYFYHGQGTQVTVS |
| binds | 53 (VHH) VHH: QVQLVESGGGLVQAGGSLRLSCAASGFPVNTRSMYWYRQAPGKEREWVAAIASTGWSTAYADSVKGRFTISRDNAKNTVYLQMNSLKPEDTAVYYCEVYVGYFYHGQGTQVTVS |
| binds | 54 (VHH) VHH: QVQLVESGGGLVQAGGSLRLSCAASGFPVQHYVMYWYRQAPGKEREWVAAIDSSGAHTVYADSVKGRFTISRDNAKNTVYLQMNSLKPEDTAVYYCEVYVGWFYHGQGTQVTVS |
| binds | 38 (VHH) VHH: QVQLVESGGGLVQAGGSLRLSCAASGFPVYTNTMYWYRQAPGKEREWVAAITSSGHNTAYADSVKGRFTISRDNAKNTVYLQMNSLKPEDTAVYYCEVYVGWFYHGQGTQVTVS |
| binds | 24 (VHH) VHH: QVQLVESGGGLVQAGGSLRLSCAASGFPVDAYVMYWYRQAPGKEREWVAAIASQGHPTAYADPVKGRFTISRDNAKNTVYLQMNSLKPEDTAVYYCEVYVGYFYHGQGTQVTVS |
| binds | 30 (VHH) VHH: QVQLVESGGGLVQAGGSLRLSCAASGFPVKTYTMYWYRQAPGKEREWVAAIESTGRYTAYADSVKGRFTISRDNAKNTVYLQMNSLKPEDTAVYYCEVYVGFFYHGQGTQVTVS |
| binds | 33 (VHH) VHH: QVQLVESGGGLVQAGGSLRLSCAASGFPVDKAHMYWYRQAPGKEREWVAAIDSTGSYTHYADSVKGRFTISRDNAKNTVYLQMNSLKPEDTAVYYCEVYVGYMYHGQGTQVTVS |
| binds | 25 (VHH) VHH: QVQLVESGGGLVQAGGSLRLSCAASGFPVNNHVMYWYRQAPGKEREWVAAISSQGAETAYADSVKGRFTISRDNAKNTVYLQMNSLKPEDTAVYYCEVYVGYFYHGQGTQVTVS |
| binds | 47 (VHH) VHH: QVQLVESGGGLVQAGGSLRLSCAASGFPVDSKTMYWYRQAPGKEREWVAAIASAGHLTAYADSVKGRFTISRDNAKNTVYLQMNSLKPEDTAVYYCEVHVGWFYHGQGTQVTVS |
| binds | 48 (VHH) VHH: QVQLVESGGGLVQAGGSLRLSCAASGFPVAMNTMYWYRQAPGKEREWVAAITSSGEHTAYADSVKGRFTISRDNAKNTVYLQMNSLKPEDTAVYYCEVYVGYFYHGQGTQVTVS |
| binds | 57 (VHH) VHH: QVQLVESGGGLVQAGGSLRLSCAASGFPVSQKTMYWYRQAPGKEREWVAAIASEGQKTAYADSVKGRFTISRDNAKNTVYLQMNSLKPEDTAVYYCEVYVGYFYHGQGTQVTVS |
| binds | 31 (VHH) VHH: QVQLVESGGGLVQAGGSLRLSCAASGFPVTENTMYWYRQAPGKEREWVAAITSNGSQTAYADSVKGRFTISRDNAKNTVYLQMNSLKPEDTAVYYCEVYVGYFYHGQGTQVTVS |
| binds | 49 (VHH) VHH: QVQLVESGGGLVQAGGSLRLSCAASGFPVYNNTMYWYRQAPGKEREWVAAISSGGSNTAYADSVKGRFTISRDNAKNTVYLQMNSLKPEDTAVYYCEVYVGYFYHGQGTQVTVS |
| binds | 36 (VHH) VHH: QVQLVESGGGLVQAGGSLRLSCAASGFPVNTHTMYWYRQAPGKEREWVAAITSNGQSTAYADSVKGRFTISRDNAKNTVYLQMNSLKPEDTAVYYCEVRVGYFYHGQGTQVTVS |
| binds | 20 (VHH) VHH: QVQLVESGGGLVQAGGSLRLSCAASGFPVKTNKMAWYRQAPGKEREWVAAITSYGSWTVYADSVKGRFTISRDNAKNTVYLQMNSLKPEDTAVYYCAVWVGALYIGQGTQVTVS |
